Measured values as given in patent publication EP4775595A1 (Beijing Tuo Jie Biopharmaceutical Co. Ltd., dated 2026).
Where two headings read alike, the source gives them in different places.

Assays:
[1] = biological target: T1, hIGF-1R-ECD-avi-his (human IGF-1R extracellular region) (human, UniProt P08069 31-935); assay: SPR (Biacore T200), antigen captured by anti-His antibody on CM5 chip, antibody as analyte
T1 construct: It was captured on the chip through its His tag

[2] = biological target: human IGF-1R on human non-small cell lung cancer cells (A549) (human, UniProt P08069 31-1367); assay: cell-based or functional assay
Sequence of human IGF-1R on human non-small cell lung cancer cells (A549) (P08069 31-1367): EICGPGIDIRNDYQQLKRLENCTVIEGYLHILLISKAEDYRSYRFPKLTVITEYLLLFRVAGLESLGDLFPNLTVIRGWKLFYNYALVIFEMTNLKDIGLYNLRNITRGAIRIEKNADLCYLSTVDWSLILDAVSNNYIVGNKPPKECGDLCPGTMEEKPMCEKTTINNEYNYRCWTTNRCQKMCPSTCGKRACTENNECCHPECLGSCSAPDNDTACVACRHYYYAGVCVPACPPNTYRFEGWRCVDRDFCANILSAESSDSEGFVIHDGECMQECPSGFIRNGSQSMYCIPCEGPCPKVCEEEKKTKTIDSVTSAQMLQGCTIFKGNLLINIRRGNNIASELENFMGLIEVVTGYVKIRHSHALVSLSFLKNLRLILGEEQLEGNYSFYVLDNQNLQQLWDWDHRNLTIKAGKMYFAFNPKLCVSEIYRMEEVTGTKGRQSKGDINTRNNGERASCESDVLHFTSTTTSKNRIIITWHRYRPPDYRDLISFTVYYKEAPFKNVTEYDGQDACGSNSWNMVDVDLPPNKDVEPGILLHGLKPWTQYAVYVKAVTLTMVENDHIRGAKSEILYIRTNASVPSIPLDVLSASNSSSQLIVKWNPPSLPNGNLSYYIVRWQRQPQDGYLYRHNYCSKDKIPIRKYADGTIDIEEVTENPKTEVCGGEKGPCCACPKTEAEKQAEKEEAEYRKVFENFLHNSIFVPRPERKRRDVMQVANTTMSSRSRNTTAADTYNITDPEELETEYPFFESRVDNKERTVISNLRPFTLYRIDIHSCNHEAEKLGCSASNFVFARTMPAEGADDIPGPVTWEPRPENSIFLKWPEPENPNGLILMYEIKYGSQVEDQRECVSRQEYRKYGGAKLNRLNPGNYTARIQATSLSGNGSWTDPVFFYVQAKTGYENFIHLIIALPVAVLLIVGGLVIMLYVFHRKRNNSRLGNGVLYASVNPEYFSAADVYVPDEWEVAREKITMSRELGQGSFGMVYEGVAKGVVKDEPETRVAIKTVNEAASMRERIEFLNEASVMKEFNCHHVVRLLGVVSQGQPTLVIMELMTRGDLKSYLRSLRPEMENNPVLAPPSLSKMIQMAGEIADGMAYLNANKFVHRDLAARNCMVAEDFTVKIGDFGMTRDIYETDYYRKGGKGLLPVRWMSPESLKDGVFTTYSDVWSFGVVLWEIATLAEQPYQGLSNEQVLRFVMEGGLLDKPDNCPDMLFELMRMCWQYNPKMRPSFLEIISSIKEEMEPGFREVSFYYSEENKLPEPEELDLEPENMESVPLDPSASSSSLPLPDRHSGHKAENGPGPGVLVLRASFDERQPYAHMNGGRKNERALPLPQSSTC

[3] = biological target: mouse IGF-1R on mouse myoblasts (C2C12) (mouse, UniProt Q60751 31-1373); assay: cell-based or functional assay
Sequence of mouse IGF-1R on mouse myoblasts (C2C12) (Q60751 31-1373): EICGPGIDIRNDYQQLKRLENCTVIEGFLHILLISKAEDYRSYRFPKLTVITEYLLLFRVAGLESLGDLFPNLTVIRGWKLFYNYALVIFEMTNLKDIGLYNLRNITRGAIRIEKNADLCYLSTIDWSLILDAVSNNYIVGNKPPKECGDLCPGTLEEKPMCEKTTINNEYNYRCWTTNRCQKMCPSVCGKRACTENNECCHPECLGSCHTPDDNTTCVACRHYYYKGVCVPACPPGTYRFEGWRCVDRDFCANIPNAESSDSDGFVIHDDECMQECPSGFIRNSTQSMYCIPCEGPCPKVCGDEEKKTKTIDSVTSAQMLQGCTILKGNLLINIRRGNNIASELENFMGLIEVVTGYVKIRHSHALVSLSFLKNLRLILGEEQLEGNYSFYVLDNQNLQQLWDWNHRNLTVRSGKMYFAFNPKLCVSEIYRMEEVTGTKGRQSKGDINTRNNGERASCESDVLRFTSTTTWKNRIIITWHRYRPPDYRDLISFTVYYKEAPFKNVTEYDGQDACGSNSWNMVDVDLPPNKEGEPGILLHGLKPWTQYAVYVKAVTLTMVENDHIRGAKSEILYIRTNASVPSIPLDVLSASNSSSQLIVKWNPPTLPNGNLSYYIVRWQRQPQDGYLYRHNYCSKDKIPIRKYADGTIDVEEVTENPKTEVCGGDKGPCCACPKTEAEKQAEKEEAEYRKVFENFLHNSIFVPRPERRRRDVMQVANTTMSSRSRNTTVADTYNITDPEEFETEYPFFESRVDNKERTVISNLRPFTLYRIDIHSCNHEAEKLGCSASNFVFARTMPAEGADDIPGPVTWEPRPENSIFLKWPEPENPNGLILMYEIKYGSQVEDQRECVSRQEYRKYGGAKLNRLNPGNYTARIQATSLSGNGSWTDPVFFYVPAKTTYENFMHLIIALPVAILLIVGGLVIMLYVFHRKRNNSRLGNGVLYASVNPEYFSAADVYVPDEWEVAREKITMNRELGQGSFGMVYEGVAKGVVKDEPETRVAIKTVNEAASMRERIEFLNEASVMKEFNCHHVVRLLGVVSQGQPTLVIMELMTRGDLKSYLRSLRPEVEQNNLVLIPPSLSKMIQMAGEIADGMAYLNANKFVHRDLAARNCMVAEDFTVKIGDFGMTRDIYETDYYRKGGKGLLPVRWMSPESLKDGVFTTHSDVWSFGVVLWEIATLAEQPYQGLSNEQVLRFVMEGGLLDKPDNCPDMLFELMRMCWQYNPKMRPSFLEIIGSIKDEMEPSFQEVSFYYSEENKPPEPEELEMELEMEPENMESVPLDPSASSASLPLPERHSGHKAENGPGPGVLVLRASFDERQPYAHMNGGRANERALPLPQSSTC

[4] = biological target: T1, hIGF-1R-ECD-avi-his (human IGF-1R …); assay: SPR (Biacore T200), antigen captured by anti-His antibody on CM5 chip, antibody as analyte; remark: listed apart in the source
[5] = biological target: T2, mouse IGF-1R (Acro, Cat. IGR-M5223) (mouse, UniProt Q60751 31-936, limits assumed); assay: as above
T2 construct: Bought reagent; also called murine IGF-1R
T2 sequence (Q60751 31-936 limits assumed): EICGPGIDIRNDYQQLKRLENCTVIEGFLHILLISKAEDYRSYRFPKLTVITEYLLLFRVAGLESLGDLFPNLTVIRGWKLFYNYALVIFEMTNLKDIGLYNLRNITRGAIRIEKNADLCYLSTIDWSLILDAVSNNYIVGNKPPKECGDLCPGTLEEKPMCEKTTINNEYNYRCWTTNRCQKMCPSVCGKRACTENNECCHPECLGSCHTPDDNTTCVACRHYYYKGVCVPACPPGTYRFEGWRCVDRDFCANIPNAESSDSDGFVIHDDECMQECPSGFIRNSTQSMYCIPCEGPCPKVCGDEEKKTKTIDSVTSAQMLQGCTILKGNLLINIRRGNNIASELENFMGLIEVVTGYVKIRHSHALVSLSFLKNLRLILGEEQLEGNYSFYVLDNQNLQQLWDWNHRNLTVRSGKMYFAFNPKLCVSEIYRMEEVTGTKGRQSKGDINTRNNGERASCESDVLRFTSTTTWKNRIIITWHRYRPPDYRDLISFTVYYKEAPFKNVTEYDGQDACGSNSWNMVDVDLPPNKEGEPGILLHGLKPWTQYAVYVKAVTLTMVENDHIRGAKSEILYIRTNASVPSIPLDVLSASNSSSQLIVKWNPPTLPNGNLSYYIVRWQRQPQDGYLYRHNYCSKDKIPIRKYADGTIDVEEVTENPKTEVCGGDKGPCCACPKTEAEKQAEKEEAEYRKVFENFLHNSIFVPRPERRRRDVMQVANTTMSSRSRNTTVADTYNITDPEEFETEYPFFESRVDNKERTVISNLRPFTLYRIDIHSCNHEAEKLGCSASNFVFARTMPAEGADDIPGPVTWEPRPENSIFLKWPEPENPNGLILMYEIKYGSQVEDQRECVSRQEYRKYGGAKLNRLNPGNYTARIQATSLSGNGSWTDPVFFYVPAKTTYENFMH

T1 sequence (P08069 other isoform, or with tags, fused parts or gaps limits assumed): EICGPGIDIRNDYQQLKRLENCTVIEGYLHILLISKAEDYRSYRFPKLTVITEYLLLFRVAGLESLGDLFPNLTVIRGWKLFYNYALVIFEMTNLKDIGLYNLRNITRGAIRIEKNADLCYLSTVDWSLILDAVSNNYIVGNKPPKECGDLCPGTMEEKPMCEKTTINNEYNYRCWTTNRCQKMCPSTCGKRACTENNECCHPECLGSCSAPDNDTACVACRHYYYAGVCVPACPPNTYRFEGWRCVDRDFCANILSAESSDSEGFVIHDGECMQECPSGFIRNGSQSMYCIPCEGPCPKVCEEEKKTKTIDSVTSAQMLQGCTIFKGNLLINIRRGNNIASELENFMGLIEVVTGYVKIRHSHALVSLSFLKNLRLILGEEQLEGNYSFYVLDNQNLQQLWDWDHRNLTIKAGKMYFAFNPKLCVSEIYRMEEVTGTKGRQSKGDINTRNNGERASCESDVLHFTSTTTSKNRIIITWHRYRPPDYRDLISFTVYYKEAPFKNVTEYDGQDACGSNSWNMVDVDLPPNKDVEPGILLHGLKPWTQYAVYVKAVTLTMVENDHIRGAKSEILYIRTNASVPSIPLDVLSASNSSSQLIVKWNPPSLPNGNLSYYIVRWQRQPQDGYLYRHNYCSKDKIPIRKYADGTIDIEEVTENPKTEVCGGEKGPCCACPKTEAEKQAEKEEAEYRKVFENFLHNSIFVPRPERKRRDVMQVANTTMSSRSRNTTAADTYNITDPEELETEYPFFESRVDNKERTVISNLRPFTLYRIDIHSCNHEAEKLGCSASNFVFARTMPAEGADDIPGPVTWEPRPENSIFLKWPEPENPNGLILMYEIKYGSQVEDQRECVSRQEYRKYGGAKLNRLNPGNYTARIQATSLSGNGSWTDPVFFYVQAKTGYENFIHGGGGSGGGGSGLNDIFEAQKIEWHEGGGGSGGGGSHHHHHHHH

Row | Binder | Kd [1] | koff [1] | kon [1] | further results
1 | IG05-hu1 (VHH, Humanized IG05; also called IG05-hul) VHH: EVQLVESGGGLVQPGGSLRLSCTASGLTFGTFGMAWFRQAPGKEREGVSAISASSGRTYYADSVKGRFTISRDNSKNTLYLQMNSLRAEDTAVYYCAVRSKNGAGYGFWYEARLYGYWGQGTLVTVSS | 0.395 nM | 0.00072 s⁻¹ | 1.82e+06 M⁻¹ s⁻¹ | 
2 | IG05-hu3 (VHH, Humanized IG05) VHH: EVQLVESGGGLVQPGGSLRLSCTASGLTFGTFGMAWFRQAPGKEREGVSAISASSGRTYYADSVKGRFTISRDNSKNTLYLQMDALRAEDTAVYYCAVRSKNGAGYGFWYEARLYGYWGQGTLVTVSS | 0.403 nM | 0.000723 s⁻¹ | 1.79e+06 M⁻¹ s⁻¹ | 
3 | IG05 (VHH, Camel single-domain antibody against IGF-1R) VHH: QVQLVESGGGLVQAGGSLRLSCTASGLTFGTFGMAWFRQAPGKEREGVSAISASSGRTYYADSVKGRFTISRDNAKNTLYLQMDALKPEDTAMYYCAVRSKNGAGYGFWYEARLYGYWGQGTQVTVSS | 0.346 nM | 0.000749 s⁻¹ | 2.17e+06 M⁻¹ s⁻¹ | 
4 | IG06-hu4 (VHH) VHH: EVQLVESGGGLVQPGGSLRLSCAASRYIVSTRCLGWVRQAPGKEREEVSTIDTAGRPTYADSVKGRFTISRDGAKNFLYLQMNSLRAEDTAVYYCAAASSDNCRYFPSNLGQGTLVTVSS | 4 nM | 0.00299 s⁻¹ | 748000 M⁻¹ s⁻¹ | 
5 | IG06-hu6 (VHH) VHH: EVQLVESGGGLVQPGGSLRLSCAASRYIVSTRCLGWVRQAPGNEREEVSTIDTAGRPTYADSVKGRFTISRDNSKNTLYLQMNSLRAEDTAVYYCAAASSDNCRYFPSNLGQGTLVTVSS | 1.55 nM | 0.00226 s⁻¹ | 1.46e+06 M⁻¹ s⁻¹ | 
6 | IG06-hu3 (VHH) VHH: EVQLVESGGGLVQPGGSLRLSCAASRYIVSTRCLGWVRQAPGKEREEVSTIDTAGRPTYADSVKGRFTISRDGAKNFLYLQMNSLRAEDTAVYYCAAASSDNCRYFPSNWGQGTLVTVSS | 27.3 nM | 0.0231 s⁻¹ | 847000 M⁻¹ s⁻¹ | 
7 | IG06-hu1 (VHH) VHH: EVQLVESGGGLVQPGGSLRLSCAASRYIVSTRCLGWVRQAPGKEREEVSTIDTAGRPTYADSVKGRFTISRDNSKNTLYLQMNSLRAEDTAVYYCAAASSDNCRYFPSNWGQGTLVTVSS | 29.3 nM | 0.0265 s⁻¹ | 905000 M⁻¹ s⁻¹ | 
8 | PHP1003 (Suzhou PRO-HEAL, CN113512116) (antibody, V domains shown, Positive control anti-IGF-1R antibody) VH: QVQLQESGPGLVKPSGTLSLTCAVSGGSISSSNWWSWVRQPPGKGLEWIGEIYHSGSTNYNPSLKSRVTISVDKSKNQFSLKLSSVTAADTAVYYCARWTGRTDAFDIWGQGTMVTVSS VL: not shown |  |  |  | IC50 (nM), inhibition of IGF1-induced pAKT signaling in A549 cells [2]: 33.6 nM; IC50 (nM), inhibition of IGF1-induced pAKT signaling in C2C12 cells [3]: 4240 nM; Kd [4]: 0.262 nM; koff [4]: 0.00107 s⁻¹; kon [4]: 4.1e+06 M⁻¹ s⁻¹; Kd [5]: 0.337 nM; koff [5]: 0.00112 s⁻¹; kon [5]: 3.32e+06 M⁻¹ s⁻¹

The remaining binders from weak to strong by Kd [1], led by results:

Row | Kd [1] | koff [1] | kon [1] | Binder | further results
9 | 34.7 nM | 0.0277 s⁻¹ | 800000 M⁻¹ s⁻¹ | IG06-hu2 (VHH) VHH: EVQLVESGGGLVQPGGSLRLSCAASRYIVSTRCLGWVRQAPGKEREEVSTIDTAGRPTYADSVKGRFTISRDNSKNFLYLQMNSLRAEDTAVYYCAAASSDNCRYFPSNWGQGTLVTVSS | 
10 | 2.67 nM | 0.0024 s⁻¹ | 899000 M⁻¹ s⁻¹ | IG06-hu5 (VHH) VHH: EVQLVESGGGLVQPGGSLRLSCAASRYIVSTRCLGWVRQAPGKEREEIATIDTAGRPTYADSVKGRFTISRDGAKNFLYLQMNSLRAEDTAVYYCAAASSDNCRYFPSNLGQGTLVTVSS | 
11 | 0.889 nM | 0.000675 s⁻¹ | 759000 M⁻¹ s⁻¹ | IG06 (VHH, Camel single-domain antibody against IGF-1R) VHH: QVQLVESGGGSVQAGGSLRLSCAASRYIVSTRCLGWVRQAPGNEREEIATIDTAGRPTYADSVKGRFTISKDGAKNFLYLQMNSLKPEDTAMYYCAAASSDNCRYFPSNLGQGTQVTVSS | 
12 | 0.507 nM | 0.000882 s⁻¹ | 1.74e+06 M⁻¹ s⁻¹ | IG05-hu4 (VHH, Humanized IG05) VHH: EVQLVESGGGLVQPGGSLRLSCAASGLTFGTFGMAWFRQAPGKEREGVSAISASSGRTYYADSVKGRFTISRDNSKNTLYLQMNSLRAEDTAVYYCAVRSKNGAGYGFWYEARLYGYWGQGTLVTVSS | 
13 | 0.361 nM | 0.000772 s⁻¹ | 2.14e+06 M⁻¹ s⁻¹ | IG05-hu2 (VHH, Humanized IG05) VHH: EVQLVESGGGLVQPGGSLRLSCTASGLTFGTFGMAWFRQAPGKEREGVSAISASSGRTYYADSVKGRFTISRDNAKNTLYLQMNSLRAEDTAVYYCAVRSKNGAGYGFWYEARLYGYWGQGTLVTVSS | 
14 | 0.258 nM | 0.000474 s⁻¹ | 1.83e+06 M⁻¹ s⁻¹ | IG05-hu5 (VHH, Humanized IG05) VHH: EVQLVESGGGLVQPGGSLRLSCAASGFTFGTFGMAWFRQAPGKEREGVSAISASSGRTYYADSVKGRFTISRDNSKNTLYLQMNSLRAEDTAVYYCAVRSKNGAGYGFWYEARLYGYWGQGTLVTVSS | 
